# In article PMC4890318:
# Molecular target: wild-type human dopamine transporter (human) (UniProt Q01959)
# UniProt Q01959, sequence (Q01959 whole entry): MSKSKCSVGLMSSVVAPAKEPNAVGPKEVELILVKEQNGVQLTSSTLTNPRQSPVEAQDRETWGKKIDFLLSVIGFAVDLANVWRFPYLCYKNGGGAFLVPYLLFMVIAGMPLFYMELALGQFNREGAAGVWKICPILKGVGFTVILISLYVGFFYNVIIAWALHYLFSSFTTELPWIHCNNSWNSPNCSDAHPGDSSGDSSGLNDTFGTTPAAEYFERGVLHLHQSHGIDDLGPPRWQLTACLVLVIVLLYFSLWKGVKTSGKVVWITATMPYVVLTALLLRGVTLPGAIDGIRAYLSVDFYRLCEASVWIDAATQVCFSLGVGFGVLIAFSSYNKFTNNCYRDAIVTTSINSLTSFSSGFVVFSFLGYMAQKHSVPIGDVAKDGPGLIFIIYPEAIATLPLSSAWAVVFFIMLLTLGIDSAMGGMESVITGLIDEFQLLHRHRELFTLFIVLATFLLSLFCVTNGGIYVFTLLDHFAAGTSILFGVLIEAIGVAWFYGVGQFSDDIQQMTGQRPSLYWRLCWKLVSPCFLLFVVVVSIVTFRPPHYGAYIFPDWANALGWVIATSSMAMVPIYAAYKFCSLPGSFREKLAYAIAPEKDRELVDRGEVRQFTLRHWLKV
substance,measurement,value
recombinant HIV-1 Tat 1-86 (from UniProt P04608 1-86) (natural protein),"decrease of [3H]DA uptake in PC12 cells transfected with WT hDAT after 20 min preincubation with 140 nM Tat1-86, against control without Tat",35%
